{"source": "paper PMC11742986", "tested_on": "RcnR (Salmonella enterica serovar Typhimurium SL1344 (100% sequence identity to E. coli RcnR))", "experiment": "fluorescence anisotropy", "details": "Ni(II), 1:1 NiII:RcnR tetramer; 10 nM DNA, 60 mM NaCl, 240 mM KCl, 10 mM HEPES pH 7.5, 25 C, anaerobic, Chelex-treated N2-purged buffers; apo-RcnR Kd 1.5e-7 M is from earlier work (ref 39)"}
{"substance": "rcnRA operator-promoter", "values": [{"measurement": "Kd", "value": 3.09, "unit": "µM"}]}
